Source: patent US20250121104A1 (FUSION PHARMACEUTICALS, published 2025)

Columns and labels:
[1] = molecular target: T1, EGFR and cMET co-expressed on the surface of tumour cell lines (HCC827, HT29, H441, H1975) (UniProt P00533 25-1210; P08581 25-1390); experiment: confocal fluorescence microscopy, AlexaFluor647-labelled antibody pre-bound to cells, T=0
T1 construct: whole, on cells; Target of the bispecific molecules on cells that carry both receptors; the cell line of each value stands under assay; also called EGFR and c-MET expressing cell line; EGFR and/or cMET expressing cell lines
Description: Unincorporated CellTracker™ Blue CMAC dye was removed by two washes with phenol-free RPMI using centrifugation at 300×g for 5 min at 4° C. Cells were then chilled on ice and blocked with the 10 ul FcR Blocking Reagent per 1×10^6 cells for 15 minutes. 2×10⁵ cells were aliquoted into 5 mL round-bottomed tubes and incubated with fluorescent antibodies at a final concentration of 2.5 μg/mL. After removal of unbound fluorescent reagents by centrifugation at 4° C., cells were resuspended in phenol-free RPMI containing 100 mM HEPES, 1 mM sodium pyruvate, and 1% FBS. Cells were transferred into multiple wells of a 384-well imaging plate at a density of 5,000 cells per well, and briefly centrifuged at 2,200 rpm for 2 min at 4° C. prior to image acquisition.

Ron (CD136) = molecular target: T2, Ron (CD136) (UniProt Q04912 25-957, limits assumed); experiment: ELISA, antigen coated at 1 µg/mL, antibody titrated from 10 µg/mL
T2 sequence (looked up): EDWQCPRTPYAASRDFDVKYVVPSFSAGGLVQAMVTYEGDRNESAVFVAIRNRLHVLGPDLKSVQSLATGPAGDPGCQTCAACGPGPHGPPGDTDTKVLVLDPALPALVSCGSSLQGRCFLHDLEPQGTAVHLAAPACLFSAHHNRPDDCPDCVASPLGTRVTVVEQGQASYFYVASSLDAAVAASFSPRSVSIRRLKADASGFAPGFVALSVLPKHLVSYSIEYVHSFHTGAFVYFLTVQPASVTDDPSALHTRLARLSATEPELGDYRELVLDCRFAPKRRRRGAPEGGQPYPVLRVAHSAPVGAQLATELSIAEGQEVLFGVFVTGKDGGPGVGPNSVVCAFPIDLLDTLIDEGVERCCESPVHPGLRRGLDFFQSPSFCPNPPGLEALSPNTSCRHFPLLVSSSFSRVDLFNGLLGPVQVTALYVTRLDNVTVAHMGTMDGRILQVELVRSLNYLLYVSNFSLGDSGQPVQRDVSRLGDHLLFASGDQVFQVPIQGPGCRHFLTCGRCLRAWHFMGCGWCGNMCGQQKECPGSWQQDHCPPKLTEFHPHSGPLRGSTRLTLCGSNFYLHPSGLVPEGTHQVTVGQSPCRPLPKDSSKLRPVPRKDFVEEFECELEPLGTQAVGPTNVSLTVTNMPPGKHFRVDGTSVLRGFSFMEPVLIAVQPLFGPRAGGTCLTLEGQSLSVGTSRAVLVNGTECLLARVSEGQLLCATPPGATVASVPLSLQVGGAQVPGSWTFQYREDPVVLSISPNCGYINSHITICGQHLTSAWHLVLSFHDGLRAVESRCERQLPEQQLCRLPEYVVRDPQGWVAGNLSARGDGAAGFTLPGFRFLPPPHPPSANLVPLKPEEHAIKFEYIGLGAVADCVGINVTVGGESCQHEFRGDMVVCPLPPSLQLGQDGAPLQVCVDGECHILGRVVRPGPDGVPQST
Description: (§1) Specificity for EGFR and cMET species paralogs and closely related family members was determined by ELISA. Briefly, antigen solutions were prepared in PBS at 1 μg/mL and 50 microliters was coated onto half area ELISA assay plates. Plates were washed and blocked with 1% BSA in PBS containing 0.005% Tween-20 (PBS-T) for one hour at room temperature. […] Wells were incubated with 50 microliters of the indicated primary antibodies diluted in PBS-T in a 1:3 dilution series, starting at 10 μg/mL and ending at 0.002 μg/mL, except for the HER4 binding mAb control, MAB1131, for which the series started at 1 μg/mL. The wells were washed 4 times in PBS-T, then 50 μl of goat anti-human Fab HRP-labeled secondary antibody, diluted 1:5000 in PBS-T, was added to each well and incubated for one hour at room temperature. […] 50 microliters of TMB stop solution was added to all wells and the absorbance was read at 450 nm on a SpectraMax M5 microplate reader. Data were analyzed in the SoftMax Pro 5 software and plotted using GraphPad Prism 7 graphing software.
(§2) To determine the species cross reactivity, ELISA assays were carried out as described above.

Semaphorin 3a = molecular target: T3, Semaphorin 3a (UniProt Q14563 21-771, limits assumed); experiment: as above
T3 sequence (looked up): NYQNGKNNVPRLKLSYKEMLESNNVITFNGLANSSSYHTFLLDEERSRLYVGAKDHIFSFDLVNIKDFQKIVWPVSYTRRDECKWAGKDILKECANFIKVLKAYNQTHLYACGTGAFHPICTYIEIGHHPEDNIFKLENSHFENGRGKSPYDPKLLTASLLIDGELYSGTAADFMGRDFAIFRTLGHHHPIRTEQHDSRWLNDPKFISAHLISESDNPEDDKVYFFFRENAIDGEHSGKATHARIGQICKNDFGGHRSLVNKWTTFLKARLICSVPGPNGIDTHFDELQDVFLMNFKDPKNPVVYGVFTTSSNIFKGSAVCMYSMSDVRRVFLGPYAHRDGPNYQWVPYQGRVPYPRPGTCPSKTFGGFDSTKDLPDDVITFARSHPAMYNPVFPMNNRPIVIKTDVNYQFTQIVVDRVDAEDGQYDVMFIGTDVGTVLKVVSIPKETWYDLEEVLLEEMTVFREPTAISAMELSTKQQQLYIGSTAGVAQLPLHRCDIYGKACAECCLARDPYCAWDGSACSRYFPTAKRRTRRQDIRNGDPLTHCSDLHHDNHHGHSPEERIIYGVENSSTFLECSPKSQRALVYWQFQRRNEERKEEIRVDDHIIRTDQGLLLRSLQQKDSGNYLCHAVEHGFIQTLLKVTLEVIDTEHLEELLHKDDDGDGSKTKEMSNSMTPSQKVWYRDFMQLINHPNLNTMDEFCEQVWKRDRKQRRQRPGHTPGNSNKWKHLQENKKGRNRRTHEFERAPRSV
Description: as §1, §2

mouse cMET (recombinant) = mouse cMET (recombinant) (mouse, UniProt P16056 25-929, limits assumed); experiment: as above
Sequence of mouse cMET (recombinant) (P16056 25-929 limits assumed): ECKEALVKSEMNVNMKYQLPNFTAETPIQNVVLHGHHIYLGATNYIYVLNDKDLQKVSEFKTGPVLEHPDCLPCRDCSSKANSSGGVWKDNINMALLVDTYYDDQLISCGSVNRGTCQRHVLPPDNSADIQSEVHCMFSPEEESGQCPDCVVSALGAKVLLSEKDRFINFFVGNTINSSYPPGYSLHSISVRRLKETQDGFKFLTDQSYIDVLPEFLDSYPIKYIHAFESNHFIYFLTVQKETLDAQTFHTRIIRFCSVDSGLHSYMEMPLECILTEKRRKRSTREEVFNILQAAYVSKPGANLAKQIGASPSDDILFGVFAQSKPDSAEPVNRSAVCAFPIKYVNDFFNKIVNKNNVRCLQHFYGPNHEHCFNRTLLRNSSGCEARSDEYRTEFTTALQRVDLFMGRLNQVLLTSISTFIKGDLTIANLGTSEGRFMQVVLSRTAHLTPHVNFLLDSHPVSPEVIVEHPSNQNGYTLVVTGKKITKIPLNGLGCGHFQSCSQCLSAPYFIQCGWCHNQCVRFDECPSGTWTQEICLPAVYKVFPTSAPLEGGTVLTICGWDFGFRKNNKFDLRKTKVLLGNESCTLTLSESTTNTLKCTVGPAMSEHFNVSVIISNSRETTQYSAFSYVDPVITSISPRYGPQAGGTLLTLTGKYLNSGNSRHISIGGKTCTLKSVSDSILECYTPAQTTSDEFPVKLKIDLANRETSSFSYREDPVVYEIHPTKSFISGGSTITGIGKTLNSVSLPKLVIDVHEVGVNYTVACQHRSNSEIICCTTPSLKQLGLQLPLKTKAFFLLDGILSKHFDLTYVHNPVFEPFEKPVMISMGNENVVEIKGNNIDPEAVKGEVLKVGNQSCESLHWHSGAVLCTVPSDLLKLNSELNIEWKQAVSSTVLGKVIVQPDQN
Description: as §1, §2

B1: RAA22/B09-57 DuetMab (bispecific antibody, V domains shown)
VH 1: QVQLVQSGAEVKKPGSSVKVSCKASGGTFSDNDFSWVRQAPGQGLEWMGAIVAVFRTETYAQKFQDRVKITADISTRTTYMELSSLRSEDTAVYYCARRLMSAISGPGAPLLMWGQGTLVTVSS
VL 1: QSALTQPRSVSGSPGQSVTISCTGTSSDVGGYNYVSWYQQHPGKAPKLMIYDVSKRPSGVPDRFSGSKSGNTASLTISGLQAEDEADYYCSSYTSSDTLEIFGGGTKLTVL
VH 2: QVQLVQSGAEVKKPGASVKVSCKASGYTFTDYYIHWVRQATGQGLEWMGWMNPNSGNTGYAQKFQGRVTMTRDTSISTAYMELSSLRSEDTAVYYCARGQGYTHSWGQGTMVTVSS
VL 2: DIQMTQSPSTLSASVGDRVTITCRASEGIYHWLAWYQQKPGKAPKLLIYKASSLASGVPSRFSGSGSGTEFTLTISSLQPDDFATYYCQQYSNYPPTFGGGTKLEIK
notes: RAA22 VH on Hole heavy chain (T366S, L368A, Y407V, Y349C) with lambda CL; cysteine insertion after S239; also called RAA22/B09 DuetMab; RAA22/B09 bispecific mAb
- fold binding on HCC827 cells over H1975 cells [1]: 8.9 fold
- binding result (Ron (CD136)): no binding (tested: 10 µg/mL)
- binding result (Semaphorin 3a): no binding (tested: 10 µg/mL)
- binding result (mouse cMET (recombinant)): no binding (tested: 10 µg/mL)
